# Results taken from patent US6060595.
# Target: HBV 21 kDa viral core protein (p21) (human hepatitis B virus (HBV))
substance,measurement,value
"Met-p22 (precore protein lacking the signal peptide sequence and having instead an initial methionine), expressed from pCMVKM22","HBV DNA replication, titration of plasmid molar ratios",15 fold
